The results in this text go back to patent US20240092909A1 (IBIO, published 2024).

Test [1] deals with T1, Programmed cell death protein 1 (PD-1), human (human, UniProt Q15116 25-167, limits assumed). Description: cell-based or functional assay.
Test [2] has as its target T1, Programmed cell death protein 1 (PD-1), …. As to the kind of experiment: SPR affinity measurement, response in nm, four traces.
Test [3] has the same target. As to the kind of experiment: SPR avidity, column 'Avidity (nM)' of the drawn table.
The target is the same in test [4]. Description: SPR affinity, column 'Affinity (nM)' of the drawn table.
For test [5] the target is unchanged. As to the kind of experiment: SPR avidity measurement (mimic cell surface PD-1 clusters), response in nm, three traces.
For test [6] the target is unchanged. As to the kind of experiment: SPR on PD-1, sensorgrams at three concentrations with fit.
Test [7] has the same target. As to the kind of experiment: SPR, PD-1 avidity (FIG. 2C); SPR avidity format, FIG. 2C. A general note: Surface plasmon resonance follows binding to a sensor surface in real time, without labels.
Test [8] has the same target. As to the kind of experiment: SPR, PD-1 binding (FIG. 2B); SPR affinity format, FIG. 2B.
Test [9] has the same target. As to the kind of experiment: SPR on PD-1, sensorgrams at five concentrations with fit.

T1 sequence (Q15116 25-167 limits assumed): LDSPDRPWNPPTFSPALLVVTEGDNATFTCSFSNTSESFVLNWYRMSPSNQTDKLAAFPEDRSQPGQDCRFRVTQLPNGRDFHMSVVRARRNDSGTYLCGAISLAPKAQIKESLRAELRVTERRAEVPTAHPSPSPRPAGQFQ

B1: 1-C09-3 (antibody, V domains shown)
VH: QVQLQQPGAELVRPGTSVKLSCKASGYTFTSYWMHWVKERPGQGLEWIGVIDPSDSYTNYNQKFKDKATLTVDTSSSTAYMQLSSLTSEDSAVYYCARSPFDYWGQGTTLTVSS
VL: DIQMTQSQKFMSTSVGDRVSVTCKASQNVGTNVAWYQQKPGQSPKALIYSASYRYSGVPDRFIGSGSGTDFTLTIRNVQSEDLAEYFCQQHNSYPFTFGGGTKLEIK
notes: From the in vitro scFv library of immunised mice
B1: the “PD-1 agonism EC50, PathHunter Checkpoint Signaling Assay” value (from here on “PD-1 agonism EC50”) in test [1] was 1.1 nM. Moreover, the Kd in [2] was 84 nM; in [3], 0.77 nM; in test [4], 84 nM; in [5] it was 0.77 nM.

B2: 1-F12-1 (antibody, V domains shown)
VH: EVQLQQPGAELVRPGTSVKLSCKASGYTFTSYWMHWVKQRPGQGLEWIGVIDPSDSYTQYNQKFKGKATLTVDTSSSTAYMQLSSLTSEDSAVYYCARSPFDYWGQGTTVTVSS
VL: DIVMTQSHKFMSTSVGDRVSITCKASQDVSTAVAWYQQKPGQSPKALIYSASYRYSGVPDRFTGSGSGTDFTLTISNVQAEDLAVYYCHQHNTYPFTFGGGTKLEIK
notes: as for B1
For B2, the “PD-1 agonism EC50” value in [1] turned out to be 1.6 nM. Moreover, the Kd in test [2] was 21 nM; in test [3], 0.98 nM; in test [4], 21 nM; in test [5], 0.98 nM.

B3: 1-F09-1 (antibody, V domains shown)
VH: QVQLQQPGAEVVMPGASVKLSCKASGYTFTSYWMHWVKQRPGQGLEWIGVIDPSDSYTQYNQKFKGKATLTVDTSSSTAYMQLSSLTSEDSAVYYCARSPFDYWGQGTTLTVSS
VL: DIQMNQSHKFMSTSVGDRVSITCKASQDVSTAVAWYQQKPGQSPKALIYSASNRYSGVPDRFIGSGSGTDFTLTIRNVQSEDLAEYFCQQHNSYPFTFGGGTKLEMK
notes: as for B1
Turning to B3, the “PD-1 agonism EC50” value in test [1] amounted to 1.1 nM. Besides, the Kd was determined as 13 nM in test [2], 0.46 nM in [3], 13 nM in test [4] and 0.46 nM in test [5].

B4: 1-C09-1 (antibody, V domains shown)
VH: QVQLQQPGTELVRPGTSVKMSCKASGYTFTSYWMHWVKQRPGQGLEWIGVIDPSDSYTQYNQKFKGKATLTVDTSSSTAYMQLSSLTSEDSAVYYCARSPFDYWGQGTTLTVSS
VL: DIVMTQSQKFMSTSVGDRVSVTCKASQNVGTNVAWYQQKPGQSPKALIYSASYRYSGIPDRFTGSGSGTDFTLTISNVQSEDLADFFCQQYNSYPFTFGGGTKLEIK
notes: as for B1
B4: the “PD-1 agonism EC50” value in [1] amounted to 1.4 nM. Besides, the Kd in test [2] was determined as 150 nM; in test [3], 3.7 nM; in test [4], 150 nM; in test [5], 3.7 nM.

B5: 2-D11-1 (antibody, V domains shown)
VH: EVQLQQPGAELVRPGTSVKLACKASGYTFNTYWMHWVNQRPGQGLEWIGVIDPSDSYTQYNQKFKGKATLTVDTSSSTAYMQLSSLTSEDSAVYYCARSPFDYWGQGTTLTVSS
VL: DVQMTQSQKFMSTSVGDRVSVTCKASQNVGTNVAWYQQKPGQSPKALIYSASYRYSGVPDRFIGSGSGTDFTLTISNVQSEDLAEYFCQQHNSYPFTFGGGTKLEIK
notes: as for B1
For the molecule B5, in test [1], the “PD-1 agonism EC50” value was 1.2 nM. The Kd worked out at 15 nM in test [2], 0.96 nM in test [3], 15 nM in test [4] and 0.96 nM in test [5].

B6: 1-H01-1 (antibody, V domains shown)
VH: QVQLQQPGAELVKPGASVKMSCKASGYTFTSYWMHWVKQRPGQGLEWIGVIDPSNSYTIYNQKFKGKATLTVDTSSSTAYMQLSSLTSEDSAVYYCARSPFDYWGQGTTLTVSS
VL: DVVMTQSQKFMSTSVGDRVSVTCKASQNVGTNVAWYQQKPGQSPKALIYSASYRYSGVPDRFTGSGSGTDFTLTIRNVQSEDLAEYFCQQHNSYPFTFGGGTKLEIK
notes: From the in vitro scFv library of immunised mice; also called clone 1-H01-1
B6: the “PD-1 agonism EC50” value in test [1] came out at 0.9 nM. For the same molecule, the Kd in test [2] amounted to 78 nM; in [3] it was 0.44 nM; in [4], 78 nM; in test [5], 0.44 nM.

B7: 43 (antibody, V domains shown)
VH: EVQLLESGGGLVQPGGSLRLSCAASGFTFSIHPMTWVRQAPGKGLEWVSLISTGGGSTYYADSVKGRFTISRDNSKNTLYLQMNSLRAEDTAVYYCASASVLGSGGYWSPGMDYWGQGTLVTVSS
VL: DIQMTQSPSSLSASVGDRVTITCRASQSIDRFLNWYQQKPGKAPKLLIYGASNLPSGVPSRFSGSGSGTDFTLTISSLQPEDFATYYCQQSFSIPWTFGGGTKVEIK
notes: From phage panning of a naive antibody library; also called antibody 43; clone 43
B7 returned a Kd in test [6] of 6.3 nM.

B8: 27A5 (antibody, V domains shown)
VH: QVTLKESGPGILQPSQTLSLTCSFSGFSLSTFGMGVGWIRQPSGKGLEWLAHIWWDADKYSTPALKSRLTISKDTSKNQVFLKIANVDTADTATYYCARIGRNYYFDYWGQGTTLTVSS
VL: DIVMTQSPSSLAVSVGEKVTLTCKSSQTLLDSTNQKNYLAWYQQIPGQSPKLLIYWASTRESGVPDRFTGSGSGTDFTLTISSVKAEDLTVYYCQQYYTYPLTFGAGTKLELK
notes: Antibody from a monoclonal hybridoma of immunised BALB/c mice
Consider B8, for which the Kd in test [7] came out at 0.005 nM; in test [8] it was 55 nM.

B9: 7 (antibody, V domains shown)
VH: EVQLLESGGGLVQPGGSLRLSCAASGFPFGNYLMNWVRQAPGKGLEWVSVISGGGVSTYYADSVKGRFTISRDNSKNTLYLQMNSLRAEDTAVYYCARGPSSWPAFDVWGQGTLVTVSS
VL: DIQMTQSPSSLSASVGDRVTITCRASETISNFLNWYQQKPGKAPKLLIYTTSSLQRGVPSRFSGSGSGTDFTLTISSLQPEDFATYYCQQSYSVPWTFGGGTKVEIK
notes: From phage panning of a naive antibody library; also called antibody 7; clone 7
The molecule B9 gave a Kd in test [6] of 16 nM.

B10: E2-B5-7_201 (antibody, V domains shown)
VH: EVQLVQSGAEVKKPGATVKISCKASGYSLSDHYMHWVQQAPGKGLEWMGRIDPHSGATKYDPKFQGRVTITADTSTDTAYMELSSLRSEDTAVYYCARSGPVYHYGSSYVMDYWGQGTTVTVSS
VL: DIVMTQSPDSLAVSLGERATINCKSGQSVFYSSNNKNYLAWYQQKPGQPPKLLIYWASTRESGVPDRFSGSGSGTDFTLTISSLQAEDVAVYYCQQYLYSWTFGQGTKLEIK
Regarding B10, the Kd in [9] came out at 1.2 nM.

B11: E2-B5-6_201 (antibody, V domains shown)
VH: EVQLVQSGAEVKKPGATVKISCKASGYSLSDHYMHWVQQAPGKGLEWMGRIDPHSGATKYDPKFQGRVTITADTSTDTAYMELSSLRSEDTAVYYCARSGPVHYYGSSYVMDYWGQGTTVTVSS
VL: DIVMTQSPDSLAVSLGERATINCKSGQSVFYSSNNKNYLAWYQQKPGQPPKLLIYWASTRESGVPDRFSGSGSGTDFTLTISSLQAEDVAVYYCQQYLYSWTFGQGTKLEIK
As for B11, in test [9], the Kd came to 0.71 nM.

B12: E2-B5-7_211 (antibody, V domains shown)
VH: EVQLVQSGAEVKKPGATVKISCKASGYSLSDHYMHWVQQAPGKGLEWMGRIDPHSGATKYDPKFQGRVTITADTSTDTAYMELSSLRSEDTAVYYCARSGPVYHYGSSYVMDYWGQGTTVTVSS
VL: DIVMTQSPDSLAVSLGERATINCKSGQSVFYSSNNKNYLAWYQQKPGQPPKLLIYWADTRESGVPDRFSGSGSGTDFTLTISSLQAEDVAVYYCQQYLYSWTFGQGTKLEIK
In the case of B12, the Kd in test [9] was determined as 0.695 nM.

B13: D4-A7-7_201 (antibody, V domains shown)
VH: EVQLVQSGAEVKKPGATVKISCKASGYILTDHYMHWVQQAPGKGLEWMGRIDPHSGGIKYDPKFQGRVTITADTSTDTAYMELSSLRSEDTAVYYCARSGPVYHYGSSYVMDYWGQGTTVTVSS
VL: DIVMTQSPDSLAVSLGERATINCKSGQSVFYSSNNKNYLAWYQQKPGQPPKLLIYWASTRESGVPDRFSGSGSGTDFTLTISSLQAEDVAVYYCQQYLYSWTFGQGTKLEIK
notes: also called clone D4-A7-7_201
B13 returned a Kd in test [9] of 1.1 nM.
